Consider 1 molecule from publication PMC9478406, “AMPK-related protein kinase ARK5 regulates subcellular localization of RNA-binding protein hnRNP A1 during hypertonic stress” (The Journal of Biological Chemistry, 2022).

The target of this test is T1, GST-tagged ARK5 wild type (AMPK-related protein kinase 5) (human, UniProt O60285 1-661).
T1 construct: ARK5 (aka NUAK1), UniProt ID O60285; Printed both as GST-ARK5 and ARK5-GST, so the end of the tag is not clear; also called NUAK1; GST-ARK5; source: U2OS, transfected, in lysate; U2OS, transfected, purified (Pierce GST spin purification kit)
T1 sequence (looked up): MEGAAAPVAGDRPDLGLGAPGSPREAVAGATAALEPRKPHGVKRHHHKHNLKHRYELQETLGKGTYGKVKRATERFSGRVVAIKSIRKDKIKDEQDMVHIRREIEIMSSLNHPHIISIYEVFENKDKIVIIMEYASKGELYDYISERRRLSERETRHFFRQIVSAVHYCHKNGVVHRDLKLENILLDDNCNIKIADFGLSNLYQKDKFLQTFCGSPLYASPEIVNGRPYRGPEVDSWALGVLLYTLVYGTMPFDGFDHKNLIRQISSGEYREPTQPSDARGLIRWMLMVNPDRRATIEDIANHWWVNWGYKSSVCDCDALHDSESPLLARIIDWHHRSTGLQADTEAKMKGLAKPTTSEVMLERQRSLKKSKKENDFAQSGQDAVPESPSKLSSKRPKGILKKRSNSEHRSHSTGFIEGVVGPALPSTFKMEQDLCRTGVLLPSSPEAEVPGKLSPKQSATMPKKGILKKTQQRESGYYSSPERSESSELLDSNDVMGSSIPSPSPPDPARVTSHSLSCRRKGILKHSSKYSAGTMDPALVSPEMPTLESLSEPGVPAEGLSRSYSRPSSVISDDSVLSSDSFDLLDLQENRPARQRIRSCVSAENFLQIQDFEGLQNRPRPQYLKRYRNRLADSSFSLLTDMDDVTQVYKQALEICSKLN
In words: co-IP; in vivo co-IP: U2OS cells cotransfected with GST-ARK5 (WT or KD) and FLAG-hnRNP A1 (WT, fragments or mutants); lysate in co-IP buffer (25 mM Tris-HCl pH 7.4, 150 mM NaCl, 0.5% Triton X-100), GSH Sepharose beads overnight at 4 °C, immunoblotting. The note with it: partners not purified.

B1: FLAG-tagged hnRNP A1 wild type (heterogeneous nuclear ribonucleoprotein A1) (natural protein, human, UniProt P09651-2 1-320, looked up)
chain: MSKSESPKEPEQLRKLFIGGLSFETTDESLRSHFEQWGTLTDCVVMRDPNTKRSRGFGFVTYATVEEVDAAMNARPHKVDGRVVEPKRAVSREDSQRPGAHLTVKKIFVGGIKEDTEEHHLRDYFEQYGKIEVIEIMTDRGSGKKRGFAFVTFDDHDSVDKIVIQKYHTVNGHNCEVRKALSKQEMASASSSQRGRSGSGNFGGGRGGGFGGNDNFGRGGNFSGRGGFGGSRGGGGYGGSGDGYNGFGNDGSNFGGGGSYNDFGNYNNQSSNFGPMKGGNFGGRSSGPYGGGGQYFAKPRNQGGYGGSSSSSSYGSGRRF
notes: hnRNP A1, full length, printed length 320 aa (residues 1-320); The printed residue numbers (1-320) fit the 320-residue isoform; also called FLAG-hnRNP A1 WT; A1-WT; source: U2OS, transfected, in lysate; U2OS, transfected, purified separately
As to B1, the binding result was “binds”.
